Test results as given in the supplement of paper PMC12667976.
± gives the standard error.

B1: library; numbered along this chain (parent)
chain: MATDAALRRLLRLHRTEIAVAVDSAFPLLHALADHDVVPEDKFQETLHLKEKEGCPQAFHALLSWLLTQDSTAILDFWRVLFKDYNLERYGRLQPILDSFPKDVDLSQPRKGRKPPAVPKALVPPPRLPTKRKASEEARAAAPAALTPRGTASPGSQLKAKPPKKPESSAEQQRLPLGNGIQTMSASVQRAVAMSSGDVPGARGAVEGILIQQVFESGGSKKCIQVGGEFYTPSKFEDSGSGKNKARSSSGPKPLVRAKGAQGAAPGGGEARLGQQGSVPAPLALPSDPQLHQKNEDECAVCRDGGELICCDGCPRAFHLACLSPPLREIPSGTWRCSSCLQATVQEVQPRAEEPRPQEPPVETPLPPGLRSAGEEVRGPPGEPLAGMDTTLVYKHLPAPPSAAPLPGLDSSALHPLLCVGPEGQQNLAPGARCGVCGDGTDVLRCTHCAAAFHWRCHFPAGTSRPGTGLRCRSCSGDVTPAPVEGVLAPSPARLAPGPAKDDTASHEPALHRDDLESLLSEHTFDGILQWAIQSMARPAAPFPS

Variants of: B1
Assay: AIRE transcriptional activation functional score (insulin promoter-GFP; nonsense median 0, synonymous median 1) (normalised score); higher = higher AIRE activity (more reporter activation)
Settings: with insulin promoter-GFP reporter in HEK293
How it was run: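 Three regions of AIRE were covered by codon-optimized NNN-codon libraries, which Bxb1 recombinase integrated into Flp-In T-REx HEK293 landing-pad cells that carry an insulin core promoter-GFP reporter. Integrants (mCherry+, BFP−) were sorted at day 7 and expanded 7 days, and then the top 10% GFP population and the unselected integrant population were tile-sequenced. The functional score is the enrichment of each variant in select versus non-select cells, with wild type subtracted. Variants required 10 counts per million in non-select, and values were rescaled to a nonsense median of 0 and a synonymous median of 1, then averaged over biological replicates.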

AIRE transcriptional activation functional score of substitutions, site by site:
E508: P 0.813 ± 0.033, Q 1.03 ± 0.18, R 0.154 ± 0.21, S 0.0376 ± 0.27, T 0.822 ± 0.21, V 0.577 ± 0.22, W 0.888 ± 0.048, Y 0.92 ± 0.16
P509: A 0.736 ± 0.23, C 0.247 ± 0.038, E 1.16 ± 0.23, F 1.17 ± 0.056, G 1.11 ± 0.048, H 0.506 ± 0.064, I 1.21 ± 0.37, K 0.522 ± 0.078, L 0.827 ± 0.28, M 1.65 ± 0.075, N 0.827 ± 0.43, Q 1.12 ± 0.14, R 0.805 ± 0.16, S 1.16 ± 0.17, T 0.871 ± 0.34, V 1.14 ± 0.23, W 0.591 ± 0.033, Y 1.11 ± 0.057
A510: C 1.24 ± 0.065, E 1.33 ± 0.12, F 0.578 ± 0.11, G 0.977 ± 0.22, H 0.605 ± 0.23, I -0.237 ± 0.11, K 0.165 ± 0.099, L 1.04 ± 0.12, M 1.37 ± 0.095, P 1.35 ± 0.16, Q 0.851 ± 1.1, R 0.323 ± 0.16, S 0.921 ± 0.32, T 0.933 ± 0.29, V 1.09 ± 0.28, W 0.663 ± 0.12, Y 0.861 ± 0.11
L511: A 0.757 ± 0.46, C 0.201 ± 0.42, F 0.864 ± 0.28, G 0.805 ± 0.27, H 0.98 ± 0.25, I 0.739 ± 0.12, K -0.311 ± 0.054, M 0.699 ± 0.14, P 0.736 ± 0.18, Q 0.142 ± 0.15, R 0.813 ± 0.17, S 0.682 ± 0.32, T 0.121 ± 0.18, V 0.838 ± 0.41, W 1.02 ± 0.11, Y 1.19 ± 0.072
H512: A 0.977 ± 0.23, C -0.3 ± 0.26, D 0.939 ± 0.065, F 1.21 ± 0.074, G 0.716 ± 0.23, I 1.1 ± 0.11, K 0.572 ± 0.14, L 0.941 ± 0.28, M 0.439 ± 0.028, N 1.02 ± 0.17, P 1.09 ± 0.24, Q 0.273 ± 0.4, R 0.445 ± 0.22, S 0.923 ± 0.21, T 0.649 ± 0.32, V 1.35 ± 0.069, W 1.06 ± 0.066, Y 0.777 ± 0.082
R513: C 0.777 ± 0.16, D 0.928 ± 0.061, E -0.344 ± 0.066, F 1.18 ± 0.22, G -0.188 ± 0.48, H 0.0273 ± 0.075, I 1.44 ± 0.29, K 0.902 ± 0.11, L 0.882 ± 0.31, M 1.01 ± 0.11, N 0.0982 ± 0.068, P 0.55 ± 0.85, S 0.587 ± 0.3, T 1.17 ± 0.29, V 0.873 ± 0.29, W 0.733 ± 0.048, Y 1.28 ± 0.17
D514: A 0.214 ± 0.078, C 0.246 ± 0.18, E 0.931 ± 0.14, F 0.299 ± 0.13, G 0.3 ± 0.27, H 0.52 ± 0.14, I -0.186 ± 0.15, K -0.0487 ± 0.099, L 0.0834 ± 0.22, M 0.515 ± 0.075, N 0.242 ± 0.062, P -0.178 ± 0.11, Q -0.128 ± 0.22, R 0.191 ± 0.14, S 0.341 ± 0.15, T 0.26 ± 0.081, V 0.335 ± 0.26, W -0.252 ± 0.11, Y 0.351 ± 0.055
D515: A -0.0405 ± 0.13, C 0.503 ± 0.096, E 1.18 ± 0.15, F 0.156 ± 0.1, G 0.421 ± 0.14, H 0.453 ± 0.15, I 0.101 ± 0.18, K -0.501 ± 0.17, L -0.215 ± 0.35, M -0.0216 ± 0.062, N 0.626 ± 0.15, P 0.67 ± 0.093, Q 0.723 ± 0.15, R -0.0862 ± 0.14, S 0.474 ± 0.19, T 0.0981 ± 0.33, V 0.106 ± 0.15, W -0.15 ± 0.044, Y 0.405 ± 0.039
L516: A 0.556 ± 0.12, C 0.678 ± 0.055, D 0.758 ± 0.17, E -0.232 ± 0.09, F 1.48 ± 0.15, G 0.562 ± 0.066, H 0.715 ± 0.16, I 0.97 ± 0.13, K 0.259 ± 0.031, N 0.207 ± 0.055, P 0.365 ± 0.53, Q 0.292 ± 0.12, R 0.262 ± 0.2, S 0.564 ± 0.12, T 0.362 ± 0.28, V 0.832 ± 0.27, W 0.496 ± 0.029, Y 1.01 ± 0.34
E517: A -0.0659 ± 0.29, D 1.25 ± 0.16, G 0.693 ± 0.054, H 0.164 ± 0.15, I 0.0464 ± 0.059, K -0.0484 ± 0.1, L 0.0571 ± 0.083, Q 0.0484 ± 0.048, R 0.985 ± 0.12, S -0.144 ± 0.04, V 0.207 ± 0.098, Y 0.524 ± 0.051
S518: A 0.775 ± 0.32, C 0.672 ± 0.18, F 1.2 ± 0.074, G 0.666 ± 0.1, H 0.981 ± 0.25, I 0.907 ± 0.25, K 1.27 ± 0.089, L 1.04 ± 0.13, N 0.216 ± 0.021, P 0.384 ± 0.23, Q 1.77 ± 0.11, R 0.342 ± 0.031, T 1.51 ± 0.17, V 1.12 ± 0.085, W 0.848 ± 0.04, Y 1.3 ± 0.062
L519: A 0.739 ± 0.25, C 0.313 ± 0.18, D 0.255 ± 0.11, E 0.874 ± 0.093, F 0.808 ± 0.029, G 0.259 ± 0.25, H -0.138 ± 0.072, I 0.439 ± 0.1, M 0.992 ± 0.07, N -0.347 ± 0.28, P 0.517 ± 0.14, Q 0.698 ± 0.32, R 0.267 ± 0.12, S 0.255 ± 0.14, T 0.239 ± 0.035, V 0.315 ± 0.23, W 0.904 ± 0.15, Y 1.11 ± 0.83
L520: A 0.276 ± 0.1, C 0.467 ± 0.064, D 0.849 ± 0.094, E 0.103 ± 0.036, F 0.794 ± 0.35, G 0.375 ± 0.15, H 0.344 ± 0.097, I 1.23 ± 0.16, K 0.452 ± 0.077, P -0.00959 ± 0.27, Q 0.36 ± 0.14, R 0.181 ± 0.11, S -0.11 ± 0.097, T 0.23 ± 0.07, V 0.478 ± 0.27
S521: A 0.824 ± 0.41, C 0.241 ± 0.2, F 0.695 ± 0.12, G 0.548 ± 0.12, I 0.551 ± 0.18, K -0.211 ± 0.063, L 0.969 ± 0.066, M 0.76 ± 0.13, N 0.923 ± 0.2, Q 0.377 ± 0.17, R 0.245 ± 0.29, T 1.08 ± 0.24, V 0.258 ± 0.23, W 0.299 ± 0.049
E522: A -0.0825 ± 0.095, C 0.0951 ± 0.24, D 0.925 ± 0.26, F 0.252 ± 0.14, G 0.352 ± 0.17, I 0.133 ± 0.3, K 0.503 ± 0.2, L -0.299 ± 0.18, Q 1.03 ± 0.37, R -0.0906 ± 0.24, S 0.0236 ± 0.093, T -0.656 ± 0.48, V 0.236 ± 0.14, W -1.23 ± 0.14
H523: C -0.042 ± 0.14, D 0.678 ± 0.41, F 0.43 ± 0.12, G 1.65 ± 0.092, I 0.286 ± 0.059, K 0.199 ± 0.14, L 0.222 ± 0.077, N 1.28 ± 0.23, Q 0.954 ± 0.57, R -0.128 ± 0.24, S 1.25 ± 0.23, T 1.37 ± 0.23, V 0.847 ± 0.12, W -0.242 ± 0.14, Y 1.33 ± 0.074
T524: A 0.636 ± 0.42, C 1.47 ± 0.16, F 0.0783 ± 0.11, G 0.619 ± 0.19, H -0.0688 ± 0.42, I 0.0345 ± 0.14, K 0.256 ± 0.25, L -0.065 ± 0.23, M -0.346 ± 0.17, P 0.528 ± 0.27, Q 0.0994 ± 0.1, R 0.214 ± 0.12, S 1.61 ± 0.24, V 0.353 ± 0.35, W 0.629 ± 0.04, Y 1.4 ± 0.066
F525: A 0.406 ± 0.24, C 0.0978 ± 0.11, D 0.0868 ± 0.17, E -1.43 ± 0.36, G 0.0436 ± 0.1, H -0.0452 ± 0.08, I 0.367 ± 0.3, L 0.45 ± 0.058, N -0.231 ± 0.12, P 0.141 ± 0.13, Q -0.479 ± 0.069, R -0.845 ± 0.21, S -0.595 ± 0.53, T -0.259 ± 0.35, V 0.609 ± 0.6, Y 0.369 ± 0.16
D526: A 0.225 ± 0.1, C -0.576 ± 0.2, E 0.925 ± 0.046, F 0.421 ± 0.054, G 0.346 ± 0.28, I 0.298 ± 0.072, K 0.177 ± 0.026, L -0.764 ± 0.23, N 0.21 ± 0.049, P -0.403 ± 0.092, R -0.505 ± 0.11, S -0.0693 ± 0.36, T -0.207 ± 0.066, V -0.011 ± 0.095, W -0.427 ± 0.46, Y 1.02 ± 0.14
G527: A 0.391 ± 0.21, C 0.656 ± 0.045, F -0.224 ± 0.17, H 0.494 ± 0.18, I 1.02 ± 0.76, K 0.173 ± 0.081, L 0.0948 ± 0.22, M 0.725 ± 0.034, N 0.999 ± 0.075, R 0.305 ± 0.14, S 0.639 ± 0.18, V 0.0961 ± 0.18, W 0.875 ± 0.1
I528: A 0.0102 ± 0.18, C 0.179 ± 0.17, D 0.302 ± 0.12, E 0.137 ± 0.15, F 0.795 ± 0.1, G 0.149 ± 0.21, H -0.237 ± 0.12, K -0.0103 ± 0.19, L 0.543 ± 0.48, M 0.456 ± 0.027, N 0.204 ± 0.097, P 0.0858 ± 0.066, Q 0.209 ± 0.088, R 0.161 ± 0.23, S -0.0342 ± 0.35, T 0.117 ± 0.3, V 0.759 ± 0.26, W 1 ± 0.065, Y 0.65 ± 0.036
